Assay results reported in paper PMC9025429.

Molecular target: N36 peptide (HIV-1)
Assay: ELISA; competition ELISA of 6-HB formation: plate coated with the 6-HB-specific mAb NC-1; inhibitor at 0.312-20 uM with N36 (final 1 uM) and biotin-C34 (final 2 uM) in PBS, 37 °C, 1 h; streptavidin-HRP detection

N36 peptide (HIV-1), sequence (P03375 546-581 limits assumed): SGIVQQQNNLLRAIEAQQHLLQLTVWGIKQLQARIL

For C10-T1144 (peptide), the IC50 was 2.42 µM.
